According to patent US20260085122A1:

B1: VHH1_C001 (VHH)
VHH: EVQLVESGGGLVQPGGSLRLSCAASPRTFQTYFMGWFRQAPGKELEWVSVINWSGGTSYYKDSVKGRFTISRDNSKNTLYLQMNSLRAEDTAVYYCAAKGSGTYDREGEYDYWGQGTLVTVSS
B2: VHH1_C002 (VHH)
VHH: EVQLLESGGGLVQPGGSLRLSCAASGFTFSDYHMSWVRQAPGKGLEWVSGILNTGLSPTYAATVTGRFTISRDNSKNTLYLQMNSLRAEDTAVYYCAQGYYRATPSQANRGQGTLVTVSS

Target: native B7H3 on cells (UniProt Q5ZPR3)
Assay: flow cytometry on cells with native B7H3 (taken as H358), anti-His-tag iFluor 488 detection

Chain of native B7H3 on cells (Q5ZPR3 29-534): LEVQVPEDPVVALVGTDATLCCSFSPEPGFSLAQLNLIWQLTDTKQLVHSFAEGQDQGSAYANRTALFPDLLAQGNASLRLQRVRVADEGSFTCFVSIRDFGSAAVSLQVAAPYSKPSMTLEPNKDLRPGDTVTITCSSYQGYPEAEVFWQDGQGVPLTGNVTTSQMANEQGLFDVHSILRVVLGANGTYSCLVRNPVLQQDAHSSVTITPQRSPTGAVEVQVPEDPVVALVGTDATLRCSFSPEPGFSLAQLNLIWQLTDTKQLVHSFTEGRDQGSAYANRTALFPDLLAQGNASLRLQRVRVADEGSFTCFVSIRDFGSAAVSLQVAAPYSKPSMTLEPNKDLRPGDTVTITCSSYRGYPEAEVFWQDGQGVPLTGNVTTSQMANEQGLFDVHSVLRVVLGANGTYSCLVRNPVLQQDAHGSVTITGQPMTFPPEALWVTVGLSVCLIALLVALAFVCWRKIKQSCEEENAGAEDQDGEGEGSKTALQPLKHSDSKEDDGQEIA

EC50	MFI	Binder
6.29 nM	496000	B1
77 nM	539000	B2
